Series [1] deals with TFIIB (untagged);TBP;TFIIF;RNA polymerase II (human;human;human;human, UniProt Q00403;P20226;P35269;P13984;P24928;P30876;P19387;O15514;P19388;P61218;P62487;P52 …, |||). The experiment in a line: EMSA. On the technique in general: Mobility shift assays separate free from complexed probe on a gel.
In series [2] the target is AF647-TFIIB (TFIIB-SNAP);TBP;TFIIF;RNA polymerase II (human;human;human;human, UniProt Q00403;P20226;P35269;P13984;P24928;P30876;P19387;O15514;P19388;P61218;P62487;P52 …, |||). In words: EMSA.
Sequence of AF647-TFIIB (TFIIB-SNAP);TBP;TFIIF;RNA polymerase II (Q00403 whole entry, chain 1 of 2): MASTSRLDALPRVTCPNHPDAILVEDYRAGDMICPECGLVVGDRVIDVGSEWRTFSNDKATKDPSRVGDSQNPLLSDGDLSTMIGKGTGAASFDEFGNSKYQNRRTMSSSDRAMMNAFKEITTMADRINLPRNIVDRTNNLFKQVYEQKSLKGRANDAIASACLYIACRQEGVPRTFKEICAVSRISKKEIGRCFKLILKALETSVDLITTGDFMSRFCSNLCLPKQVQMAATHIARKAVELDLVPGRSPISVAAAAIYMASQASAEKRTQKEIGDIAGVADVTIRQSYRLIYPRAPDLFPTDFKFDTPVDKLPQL
Sequence of AF647-TFIIB (TFIIB-SNAP);TBP;TFIIF;RNA polymerase II (P20226 whole entry, chain 2 of 2): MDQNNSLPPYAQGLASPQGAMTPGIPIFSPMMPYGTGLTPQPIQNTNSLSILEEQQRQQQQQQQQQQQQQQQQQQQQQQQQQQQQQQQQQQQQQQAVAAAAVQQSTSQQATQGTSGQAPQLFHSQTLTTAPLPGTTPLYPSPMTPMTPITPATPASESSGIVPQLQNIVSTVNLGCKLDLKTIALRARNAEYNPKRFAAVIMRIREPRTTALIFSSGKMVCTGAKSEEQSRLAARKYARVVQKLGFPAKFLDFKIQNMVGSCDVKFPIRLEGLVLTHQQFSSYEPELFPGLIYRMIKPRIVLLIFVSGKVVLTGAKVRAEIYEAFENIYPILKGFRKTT

Sequence of TFIIB (untagged);TBP;TFIIF;RNA polymerase II (Q00403 whole entry, chain 1 of 2): as the sequence (Q00403 whole entry, chain 1 of 2) above
Sequence of TFIIB (untagged);TBP;TFIIF;RNA polymerase II (P20226 whole entry, chain 2 of 2): as the sequence (P20226 whole entry, chain 2 of 2) above

B1: three piece AdMLP DNA (-40 to +37), pre-melted bubble (dsDNA)
DNA 1: AAGGGGGGCTATAAAAGGGGGTGGGGGCGCGAAGCAGGAGTAGACTATCTTTAATCACTA
DNA 2: CCTGAGGTTAGTGTGAGTAGTGATTAAAGATAGTGATGAGGACGAACGCGCCCCCACCCCCTTTTATAGCCCCCCTT
DNA 3: CTCACACTAACCTCAGG
Turning to B1, the binding result in series [1] and in series [2] was “binds” throughout.

For the origin of these results see paper doi:10.1101/2019.12.19.882902.
